Test system: iron-deficiency-anemia-induced animals
Assay type: in vivo, Sprague-Dawley rats
Experimental: The composition containing bovine myoglobin prepared according to the present invention was administered to iron-deficiency-anemia-induced animals, whereby the effectiveness of the composition containing bovine myoglobin on alleviating anemia was evaluated. Specifically, after 2 weeks acclimation period, thirty 9-week old Sprague-Dawley rats (female) were divided into 3 groups of 10 rats per group, among which one group was fed with normal feed in an amount of 10% of body weight daily for one month (Group 1; control), and the remaining two groups were fed with iron-deficient feed in an amount of 10% of body weight daily for 6 weeks to induce iron-deficiency anemia (Group 2 and Group 3). After 6 weeks of feeding, it was confirmed that iron-deficiency anemia was induced in the individual rat belonging to Group 2 and Group 3. Then, one of the anemia-induced groups was orally administered once a day with saline alone (Group 2), and the other anemia-induced group was orally administered once a day with solution containing bovine myoglobin (0.1 mg Fe/500 μ1 solution, Group 3). The administration continued for 5 weeks. During 5 weeks of administration to Group 2 and Group 3, Group 1 was continuously fed with normal feed, and Group 2 and Group 3 were fed with iron-deficient feed. […] After 5 weeks of administration, blood was collected, and whether anemia was alleviated was evaluated.

[1] = female Sprague-Dawley rats, iron-deficient feed, oral once a day 0.1 mg Fe/500 μl solution for 5 weeks

B1: bovine myoglobin (protein)
chain: MGLSDGEWQLVLNAWGKVEADVAGHGQEVLIRLFTGHPETLEKFDKFKHLKTEAEMKASEDLKKHGNTVLTALGGILKKKGHHEAEVKHLAESHANKHKIPVKYLEFISDAIIHVLHAKHPSDFGADAQAAMSKALELFRNDMAAQYKVLGFHG
modifications: heme cofactor; Bovine myoglobin
- Effectiveness at alleviating iron-deficiency anemia (conclusion from blood analysis after 5 weeks of administration): effective at alleviating iron-deficiency anemia
- Blood test Hematocrit [1]: 35.8 ± 1.9%
- Blood test Hemoglobin content [1]: 14.0 ± 0.7 g/dL
- Weight of rats on 5 weeks after administration [1]: 318.9 ± 1.1 g
- Occurrence of abnormal symptoms during the administration period (rat, in vivo, po): no abnormal symptoms
